# B1: melanocortin receptor accessory protein 2 (MRAP2)-3xFLAG, murine (natural protein, mouse, UniProt D3Z1Q2 3-207, looked up)
# chain: MSAQRLASNRTSPQSPSNSDYTWEYEYYEIGPVSFEGLKAHKYSIVIGFWVGLAVFVIFMFFVLTLLTKTGAPHQDNAESSERRFRMNSFVSDFGKPLESDKVFSRQGNEESRSLFHCYINEVEHLDRVKVCHQTTAIDSDVHLQEASRSSGRPEEELARFMKFDIPNFVNTEQSSFGEDDLLISEAPVLLENKPVSQTSRIDLD
# Target: melanocortin receptor 4 (MC4R)-3xmNeonGreen, human (human, UniProt P32245 1-332, a fraction carries K63-linked polyubiquitin chains (smear above the main band))
# Sequence (P32245 whole entry): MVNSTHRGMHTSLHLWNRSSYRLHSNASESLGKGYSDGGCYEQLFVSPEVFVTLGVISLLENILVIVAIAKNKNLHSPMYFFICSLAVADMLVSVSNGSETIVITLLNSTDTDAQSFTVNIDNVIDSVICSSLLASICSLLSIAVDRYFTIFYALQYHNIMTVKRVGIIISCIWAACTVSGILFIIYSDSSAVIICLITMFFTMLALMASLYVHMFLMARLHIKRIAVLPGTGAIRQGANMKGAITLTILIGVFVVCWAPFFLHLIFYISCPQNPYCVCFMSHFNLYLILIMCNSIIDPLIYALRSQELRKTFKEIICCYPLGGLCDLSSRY
# Experiment: cell-based or functional assay
binder,measurement,value
B1,"ciliary fluorescence of MRAP2^3FLAG in IMCD3-[MRAP2^3FLAG/MC4R^3NG] cells treated with 5 nM HS014, time course, against vehicle",11 fold
same,"ciliary fluorescence of MRAP2^3FLAG in IMCD3-[MRAP2^3FLAG/MC4R^3NG] cells treated with 50 nM AgRP, time course, against vehicle",25 fold
